# According to publication PMC11382572, “Structural and kinetic insights into the stereospecific oxidation of R-2,3-dihydroxypropanesulfonate by DHPS-3-dehydrogenase from Cupriavidus pinatubonensis” (Chemical Science, 2024):
# Legend:
# Assay type in all cases: biochemical, Cupriavidus pinatubonensis
# [1] = substrate: NC(=O)c1ccc[n+]([C@@H]2O[C@H](COP(=O)([O-])OP(=O)(O)OC[C@H]3O[C@@H](n4cnc5c(N)ncnc54)[C@H](O)[C@@H]3O)[C@@H](O)[C@H]2O)c1; test: X-ray crystal structure by soaking (open conformation); Michaelis-Menten kinetics (apparent KM); conditions: Zn2+ nonproductive complex; nicotinamide group disordered, modelled with zero occupancy; varied: cofactor
# [2] = substrate: O=S(=O)(O)C[C@H](O)CO; test: purified protein; conditions: Zn2+, NAD+
# [3] = substrate: O=CC(O)CS(=O)(=O)O; test: Michaelis-Menten kinetics (apparent KM); LCMS product; conditions: Zn2+, NAD+
protein,measurement,setting,value
DHPS-3-dehydrogenase (CpHpsN) (Cupriavidus pinatubonensis JMP134) (protein) MISYLKKAEKTPQTETATAQKVVTEMLAEIQARGKDAVRQYAKQLDGWSGDIVLTPDQIREQTKDVPAGVRADIDFAIRQVTDFALAQRESLKEFSVELHPGVTAGQRVLPVNVVGCYAPAGRYAHIASAYMGVATAKAAGVKTVVACSSPFRGQGIHPHVLYAFQAAGADVIMALGGVQAIASMAYGLFTGKPADVVVGPGNKFVAEAKRSLYGQVGIDVFAGPSEVAVIADETADPAIVASDLVGQAEHGHESPAWLFTTSRDLADRVMALVPELIAKLPPTARDAATAAWRDYGEVILCGTREEVVEISDRYASEHLEVHTADLDWWLANLTCYGSLFLGEETTVAFGDKTSGPNHVLPTKGAARYSGGLSVHKFMKTLTWQQMTREATRQIGQVTARISRLEGMEAHARTADDRMAKYFPNASFEMGTPVEV,Km,[1],470 ± 100 µM
same,kcat/Km,[1],3400 ± 1100 M⁻¹ s⁻¹
same,Km,[2],1300 ± 150 µM
same,kcat/Km,[2],750 ± 200 M⁻¹ s⁻¹
same,Km,[3],360 ± 60 µM
same,kcat/Km,[3],8600 ± 830 M⁻¹ s⁻¹
